Measured values reported in patent US20120023600A1 (Novartis, published 2012).
Residue numbers refer to the chain shown, from its start.

T1: DKK1-APP (human, UniProt O94907 32-266)
T1 sequence: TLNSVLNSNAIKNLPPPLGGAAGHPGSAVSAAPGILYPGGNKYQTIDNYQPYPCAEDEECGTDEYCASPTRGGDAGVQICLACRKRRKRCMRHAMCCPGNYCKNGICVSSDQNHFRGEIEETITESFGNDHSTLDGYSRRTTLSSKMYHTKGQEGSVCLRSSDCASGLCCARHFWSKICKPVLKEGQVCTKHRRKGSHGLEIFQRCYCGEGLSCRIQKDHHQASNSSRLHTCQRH

T2: recombinant human DKK1 (human, UniProt O94907 32-266)
T2 sequence: T1 sequence

T3: mouse DKK1 (R&D Systems) (mouse, UniProt O54908 32-272)
T3 construct: Bought protein
T3 sequence (looked up): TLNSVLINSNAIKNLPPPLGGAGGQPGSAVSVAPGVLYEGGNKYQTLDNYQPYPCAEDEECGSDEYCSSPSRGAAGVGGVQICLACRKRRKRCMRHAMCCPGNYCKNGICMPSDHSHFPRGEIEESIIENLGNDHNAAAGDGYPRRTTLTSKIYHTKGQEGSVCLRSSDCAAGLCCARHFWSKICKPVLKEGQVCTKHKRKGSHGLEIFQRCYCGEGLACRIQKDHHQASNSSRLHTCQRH

T4: cynomolgus DKK1 (cynomolgus monkey (Macaca fascicularis), UniProt A0A7N9IE82 32-266)
T4 construct: also called cyno DKK1; monkey DKK1 (Novartis)
T4 sequence: T1 sequence with H114N, T150S, S166T

T5: biotinylated human DKK1 (human, UniProt O94907 32-266, biotinylated (sites not given))
T5 construct: also called biotinylated DKK1; human recombinant, biotinylated DKK1
T5 sequence: T1 sequence

B1: MOR04461 (Fab, V domains shown)
VH: QVQLVESGGGLVQPGGSLRLSCAASGFTFSSYWMSWVRQAPGKGLEWVSGISYSGSNTHYADSVKGRFTISRDNSKNTLYLQMNSLRAEDTAVYYCARMGIDLDYWGQGTLVTVSS
VL: DIALTQPASVSGSPGQSITISCTGTSSDVGGFNYVSWYQQHPGKAPKLMIHDGSNRPSGVSNRFSGSKSGNTASLTISGLQAEDEADYYCSTWDMTVDFVFGGGTKLTVLG
notes: Fab with C-terminal FLAG and 6xHis tags
B2: MOR04454 (Fab, V domains shown)
VH: QVQLVESGGGLVQPGGSLRLSCAASGFTFSNYGLHWVRQAPGKGLEWVSSISYYGSSTYYADSVKGRFTISRDNSKNTLYLQMNSLRAEDTAVYYCARDGSHMDKPPGYVFAFWGQGTLVTVSS
VL: DIQMTQSPSSLSASVGDRVTITCRASQGIKNYLNWYQQKPGKAPKLLIGAASSLQSGVPSRFSGSGSGTDFTLTISSLQPEDFATYYCLQYYGMPPTFGQGTKVEIKR
notes: as for B1
B3: MOR04516 (Fab, V domains shown)
VH: QVQLVQSGAEVKKPGESLKISCKGSGYSFTNYYIGWVRQMPGKGLEWMGIIYPTDSYTNYSPSFQGQVTISADKSISTAYLQWSSLKASDTAMYYCARGIPFRMRGFDYWGQGTLVTVSS
VL: DIVLTQPPSVSGAPGQRVTISCSGSSSNIGSSFVNWYQQLPGTAPKLLIGNNSNRPSGVPDRFSGSKSGTSASLAITGLQSEDEADYYCASFDMGSPNVVFGGGTKLTVLG
notes: Fab with C-terminal FLAG and 6xHis tags; also called MOR4516
B4: MOR04456 (Fab, V domains shown)
VH: QVQLVESGGGLVQPGGSLRLSCAASGFTFNNYGMTWVRQAPGKGLEWVSGISGSGSYTYYADSVKGRFTISRDNSKNTLYLQMNSLRAEDTAVYYCARTIYMDYWGQGTLVTVSS
VL: DIVLTQSPATLSLSPGERATLSCRASQNLFSPYLAWYQQKPGQAPRLLIYGASNRATGVPARFSGSGSGTDFTLTISSLEPEDFATYYCQQYGDEPITFGQGTKVEIKR
notes: as for B1
B5: MOR04914 (Fab, V domains shown)
VH: B1 VH with G50V, Y53S, S54D, G55S, N57S, H59Y, M99H, L103F, Y105H
VL: DIALTQPASVSGSPGQSITISCTGTSSDLGGYNYVSWYQQHPGKAPKLMIYDVNNRPSGVSNRFSGSKSGNTASLTISGLQAEDEADYYCQSYTYTPISPVFGGGTKLTVLG
B6: MOR04954 (Fab, V domains shown)
VH: QVQLVESGGGLVQPGGSLRLSCAASGFTFSSYWMSWVRQAPGKGLEWVSVIEHKDKGGTTYYAASVKGRFTISRDNSKNTLYLQMNSLRAEDTAVYYCARHGIDFDHWGQGTLVTVSS
VL: B5 VL with T94A, Y95S, T96G, P97N, I98T, S99K, P100V
B7: MOR04921 (Fab, V domains shown)
VH: B1 VH
VL: DIALTQPASVSGSPGQSITISCTGTSSDVGGFNYVSWYQQHPGKAPKLMIHDGSNRPSGVSNRFSGSKSGNTASLTISGLQAEDEADYYCQTWATSPLSSVFGGGTKLTVLG
B8: MOR04907 (Fab, V domains shown)
VH: B4 VH
VL: B4 VL with T86V, G93L, D94S, E95L, I97T

target: T1, DKK1-APP; assay: cell-based or functional assay

| Luciferase reporter assay; EC50 | Binder |
| --- | --- |
| 57 nM | B1 |
| 83 nM | B2 |
| 42 nM | B3 |
| 95 nM | B4 |

target: T1, DKK1-APP; assay: cell-based or functional assay; remark: another data set of the same source

| EC50 | Binder |
| --- | --- |
| 57 nM | B1 |
| 83 nM | B2 |
| 42 nM | B3 |
| 95 nM | B4 |

target: T1, DKK1-APP; assay: cell-based or functional assay; remark: another data set of the same source

| Luciferase reporter assay w/o Kremen; Activity in 15% Human serum (%) | Binder |
| --- | --- |
| 80% | B5 |
| 55% | B6 |
| 26% | B7 |
| 54% | B8 |

target: T2, recombinant human DKK1; assay: cell-based or functional assay

| TCF/LEF luc assay w/Kremen: EC50 | Binder |
| --- | --- |
| 1.1 nM | B5 |
| 1.3 nM | B6 |
| 0.7 nM | B7 |
| 0.9 nM | B8 |

target: T2, recombinant human DKK1; assay: solution equilibrium titration (SET), ECL (BioVeris), Fab
Description: (§1) Electrochemiluminescence (ECL) based affinity determination in solution and data evaluation are basically performed as described by Haenel et al., 2005. […] Subsequently, the concentration of unbound Fab is quantified by ECL detection using the M-SERIES® 384 analyzer (BioVeris Europe).
(§2) Affinities are calculated according to Haenel et al., 2005 Anal Biochem 339.1:182-184.

| Kd | Binder |
| --- | --- |
| 0.094 nM | B5 |
| 0.11 nM | B6 |
| 0.114 nM | B8 |

target: T3, mouse DKK1 (R&D Systems); assay: as above
Description: as §1, §2

| Kd | Binder |
| --- | --- |
| 0.2 nM | B5 |
| 0.036 nM | B6 |
| 0.167 nM | B8 |

target: T4, cynomolgus DKK1; assay: as above
Description: as §1, §2

| Kd | Binder |
| --- | --- |
| 0.14 nM | B5 |
| 0.112 nM | B6 |
| 0.17 nM | B8 |

target: T2, recombinant human DKK1; assay: SPR (Biacore), DKK1 immobilised on CM5 chip, Fab as analyte
Description: (§3) Using these clones, kinetic SPR analysis is performed on a. […] The Fab preparations are applied in concentration series of 16-500 nM at a flow rate of 20 μl/min. Association phase is set to 60 s and dissociation phase to 120 s.

| Kd | Binder |
| --- | --- |
| 7.6 nM | B1 |
| 3.2 nM | B2 |
| 2.6 nM | B3 |
| 7.9 nM | B4 |

target: T3, mouse DKK1 (R&D Systems); assay: as above
Description: as §3

| Kd | Binder |
| --- | --- |
| 12.8 nM | B1 |
| 6 nM | B2 |
| 2.4 nM | B3 |
| 11.6 nM | B4 |

target: T4, cynomolgus DKK1; assay: as above
Description: as §3

| Kd | Binder |
| --- | --- |
| 7.3 nM | B1 |
| 2.7 nM | B2 |
| 1.9 nM | B3 |
| 8.1 nM | B4 |

target: T2, recombinant human DKK1; assay: as above; remark: another data set of the same source
Description: as §3

| Kd | Binder |
| --- | --- |
| 7.6 nM | B1 |
| 3.2 nM | B2 |
| 2.6 nM | B3 |
| 7.9 nM | B4 |

target: T3, mouse DKK1 (R&D Systems); assay: as above; remark: another data set of the same source
Description: as §3

| Kd | Binder |
| --- | --- |
| 12.8 nM | B1 |
| 6 nM | B2 |
| 2.4 nM | B3 |
| 11.6 nM | B4 |

target: T4, cynomolgus DKK1; assay: as above; remark: another data set of the same source
Description: as §3

| Kd | Binder |
| --- | --- |
| 7.3 nM | B1 |
| 2.7 nM | B2 |
| 1.9 nM | B3 |
| 8.1 nM | B4 |

target: T2, recombinant human DKK1; assay: as above; remark: another data set of the same source
Description: as §3

| Kd | Binder |
| --- | --- |
| 7.6 nM | B1 |
| 3.2 nM | B2 |
| 2.6 nM | B3 |
| 7.9 nM | B4 |

target: T3, mouse DKK1 (R&D Systems); assay: as above; remark: another data set of the same source
Description: as §3

| Kd | Binder |
| --- | --- |
| 12.8 nM | B1 |
| 6 nM | B2 |
| 2.4 nM | B3 |
| 11.6 nM | B4 |

target: T4, cynomolgus DKK1; assay: as above; remark: another data set of the same source
Description: as §3

| Kd | Binder |
| --- | --- |
| 7.3 nM | B1 |
| 2.7 nM | B2 |
| 1.9 nM | B3 |
| 8.1 nM | B4 |

target: T5, biotinylated human DKK1; assay: ELISA, biotinylated DKK1 on Neutravidin plates, Fab 1 ug/ml, anti-FLAG-AP detection; single measurement
Description: Binding specificity of the matured Fabs in the presence of 50% human serum (HS) is determined. […] After coating of the antigen, wells are blocked with TBS/0.05% Tween (TBS-T) supplemented with 1% BSA for 1 h at room temperature. Purified Fabs described above are diluted either in TBS/4% BSA or TBS/50% HS at a final concentration of 1 μg/ml, added to the coated and blocked wells and the plates are incubated for 1 h at room temperature. For detection, an anti-FLAG alkaline phosphatase (AP)-conjugated antibody (1:5000 dilution in TBST) and the fluorogenic substrate AttoPhos (Roche) are used. After each incubation, the wells of the microtiter plates are washed with TBST five times, except after the final incubation step with the labeled secondary antibody when wells are washed three times.
The fluorescence is measured in a TECAN Spectrafluor plate reader.

| Binding activity w/50% Human serum vs 4% BSA (%) | Binder |
| --- | --- |
| 83% | B5 |
| > 83% | B6 |
| 93% | B7 |
| > 83% | B8 |
